What all share (assay): graphene FET
Data set [1] concerns the target T1, TNF-alpha (UniProt P01375 77-233).
Data set [2] concerns the target T1, TNF-alpha. This is another data set of the same source.
Data set [3] has as its target T1, TNF-alpha. This is another data set of the same source.
Data set [4] concerns the target T1, TNF-alpha. This is another data set of the same source.
For data set [5], the target named is T1, TNF-alpha. The source holds these as a separate data set.
In data set [6] the target is T1, TNF-alpha. This is another data set of the same source.
For data set [7], the target named is T1, TNF-alpha. The source holds these as a separate data set.
The target of data set [8] is T1, TNF-alpha. The source holds these as a separate data set.
For data set [9], the target named is T1, TNF-alpha. The source holds these as a separate data set.

Read-outs that look alike come from different tables or passages of the source.

T1 sequence (P01375 77-233): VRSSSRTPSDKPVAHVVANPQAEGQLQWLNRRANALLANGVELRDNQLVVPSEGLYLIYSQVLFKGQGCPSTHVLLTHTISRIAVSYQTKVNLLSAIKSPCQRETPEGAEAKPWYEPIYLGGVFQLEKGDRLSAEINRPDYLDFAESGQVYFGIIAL

B1: VR11 (ssDNA)
DNA: TGGTGGATGGCGCAGTCGGCGACAA
modifications: 5'-NH2 (coupled to PASE on graphene)
One may read the Kd as the constant that tells how readily two partners part at equilibrium. In the case of B1, the Kd in the data set with TNF-alpha [1] is 15.1 nM; in the data set with TNF-alpha [2], 14.7 nM; with TNF-alpha [3], 14.2 nM; with TNF-alpha [4], 15.6 nM; in the data set with TNF-alpha [5] it was 15 nM; with TNF-alpha [6], 14.2 nM. The Kd with TNF-alpha [7] amounted to 14.3 nM; with TNF-alpha [8], 15.1 nM; with TNF-alpha [9], 15.5 nM.

The values above are taken from article PMC7861488.
